Consider three molecules from PMC7069705 (Science Advances, 2019).

B3: KAP3 (separately purified) (natural protein, mouse, UniProt P70188-1 1-793, looked up)
chain: MQGEDARYLKRKVKGGNIDVHPSEKALIVQYEVEATILGEMGDPMLGERKECQKIIRLKSLNANTDITSLARKVVEECKLIHPSKLSEVEQLLYYLQNRRDSLPGKEKKEKSSKPKDPPPFEGMEIDEVANINDMDEYIELLYEDIPDKVRGSALILQLARNPDNLEELLLNETALGALARVLREDWKQSVELATNIIYIFFCFSSFSHFHGLITHYKIGALCMNIIDHELKRHELWQEELSKKKKAVDEDLENQTLRKDYDKTFKKYQGLVVKQEQLLRVALYLLLNLAEDTRTELKMRNKNIVHMLVKALDRDNFELLILVVSFLKKLSIFMENKNDMVEMDIVEKLVKMIPCEHEDLLNITLRLLLNLSFDTGLRNKMVQVGLLPKLTALLGNENYKQIAMCVLYHISMDDRFKSMFAYTDCIPQLMKMLFECSDERIDLELISFCINLAANKRNVQLICEGNGLKMLMKRALKLKDPLLMKMIRNISQHDGPTKNLFIDYVGDLAAQISSDEEEEFVIECLGTLANLTIPDLDWELVLKEYKLVPFLKDKLKPGAAEDDLVLEVVIMIGTVSMDDSCAALLAKSGIIPALIELLNAQQEDDEFVCQIIYVFYQMVFHQATRDVIIKETQAPAYLIDLMHDKNNEIRKVCDNTLDIIAEYDEEWAKKIQSEKFRWHNSQWLEMVESRQLDESEQYLYGDDRIEPYIHEGDILERPDLFYNSDGLITSEGAISPDFFNDFHLQNGDVVGQHAFPGSLGMDGFGQPLGILGRPATAYGFRPDEPYYYSFGSR

Series [1] deals with the molecule itself. The experiment in a line: single-molecule photobleaching step analysis.
Series [2] concerns the target B3. In words: SEC-MALS.
The series “SEC-MALS” concerns the molecule itself. In words: SEC-MALS.
The target of series [3] is full-length APC–green fluorescent protein (GFP) (mouse, UniProt Q61315 1-2845). In words: MST.
Sequence of full-length APC–green fluorescent protein (GFP) (Q61315 whole entry): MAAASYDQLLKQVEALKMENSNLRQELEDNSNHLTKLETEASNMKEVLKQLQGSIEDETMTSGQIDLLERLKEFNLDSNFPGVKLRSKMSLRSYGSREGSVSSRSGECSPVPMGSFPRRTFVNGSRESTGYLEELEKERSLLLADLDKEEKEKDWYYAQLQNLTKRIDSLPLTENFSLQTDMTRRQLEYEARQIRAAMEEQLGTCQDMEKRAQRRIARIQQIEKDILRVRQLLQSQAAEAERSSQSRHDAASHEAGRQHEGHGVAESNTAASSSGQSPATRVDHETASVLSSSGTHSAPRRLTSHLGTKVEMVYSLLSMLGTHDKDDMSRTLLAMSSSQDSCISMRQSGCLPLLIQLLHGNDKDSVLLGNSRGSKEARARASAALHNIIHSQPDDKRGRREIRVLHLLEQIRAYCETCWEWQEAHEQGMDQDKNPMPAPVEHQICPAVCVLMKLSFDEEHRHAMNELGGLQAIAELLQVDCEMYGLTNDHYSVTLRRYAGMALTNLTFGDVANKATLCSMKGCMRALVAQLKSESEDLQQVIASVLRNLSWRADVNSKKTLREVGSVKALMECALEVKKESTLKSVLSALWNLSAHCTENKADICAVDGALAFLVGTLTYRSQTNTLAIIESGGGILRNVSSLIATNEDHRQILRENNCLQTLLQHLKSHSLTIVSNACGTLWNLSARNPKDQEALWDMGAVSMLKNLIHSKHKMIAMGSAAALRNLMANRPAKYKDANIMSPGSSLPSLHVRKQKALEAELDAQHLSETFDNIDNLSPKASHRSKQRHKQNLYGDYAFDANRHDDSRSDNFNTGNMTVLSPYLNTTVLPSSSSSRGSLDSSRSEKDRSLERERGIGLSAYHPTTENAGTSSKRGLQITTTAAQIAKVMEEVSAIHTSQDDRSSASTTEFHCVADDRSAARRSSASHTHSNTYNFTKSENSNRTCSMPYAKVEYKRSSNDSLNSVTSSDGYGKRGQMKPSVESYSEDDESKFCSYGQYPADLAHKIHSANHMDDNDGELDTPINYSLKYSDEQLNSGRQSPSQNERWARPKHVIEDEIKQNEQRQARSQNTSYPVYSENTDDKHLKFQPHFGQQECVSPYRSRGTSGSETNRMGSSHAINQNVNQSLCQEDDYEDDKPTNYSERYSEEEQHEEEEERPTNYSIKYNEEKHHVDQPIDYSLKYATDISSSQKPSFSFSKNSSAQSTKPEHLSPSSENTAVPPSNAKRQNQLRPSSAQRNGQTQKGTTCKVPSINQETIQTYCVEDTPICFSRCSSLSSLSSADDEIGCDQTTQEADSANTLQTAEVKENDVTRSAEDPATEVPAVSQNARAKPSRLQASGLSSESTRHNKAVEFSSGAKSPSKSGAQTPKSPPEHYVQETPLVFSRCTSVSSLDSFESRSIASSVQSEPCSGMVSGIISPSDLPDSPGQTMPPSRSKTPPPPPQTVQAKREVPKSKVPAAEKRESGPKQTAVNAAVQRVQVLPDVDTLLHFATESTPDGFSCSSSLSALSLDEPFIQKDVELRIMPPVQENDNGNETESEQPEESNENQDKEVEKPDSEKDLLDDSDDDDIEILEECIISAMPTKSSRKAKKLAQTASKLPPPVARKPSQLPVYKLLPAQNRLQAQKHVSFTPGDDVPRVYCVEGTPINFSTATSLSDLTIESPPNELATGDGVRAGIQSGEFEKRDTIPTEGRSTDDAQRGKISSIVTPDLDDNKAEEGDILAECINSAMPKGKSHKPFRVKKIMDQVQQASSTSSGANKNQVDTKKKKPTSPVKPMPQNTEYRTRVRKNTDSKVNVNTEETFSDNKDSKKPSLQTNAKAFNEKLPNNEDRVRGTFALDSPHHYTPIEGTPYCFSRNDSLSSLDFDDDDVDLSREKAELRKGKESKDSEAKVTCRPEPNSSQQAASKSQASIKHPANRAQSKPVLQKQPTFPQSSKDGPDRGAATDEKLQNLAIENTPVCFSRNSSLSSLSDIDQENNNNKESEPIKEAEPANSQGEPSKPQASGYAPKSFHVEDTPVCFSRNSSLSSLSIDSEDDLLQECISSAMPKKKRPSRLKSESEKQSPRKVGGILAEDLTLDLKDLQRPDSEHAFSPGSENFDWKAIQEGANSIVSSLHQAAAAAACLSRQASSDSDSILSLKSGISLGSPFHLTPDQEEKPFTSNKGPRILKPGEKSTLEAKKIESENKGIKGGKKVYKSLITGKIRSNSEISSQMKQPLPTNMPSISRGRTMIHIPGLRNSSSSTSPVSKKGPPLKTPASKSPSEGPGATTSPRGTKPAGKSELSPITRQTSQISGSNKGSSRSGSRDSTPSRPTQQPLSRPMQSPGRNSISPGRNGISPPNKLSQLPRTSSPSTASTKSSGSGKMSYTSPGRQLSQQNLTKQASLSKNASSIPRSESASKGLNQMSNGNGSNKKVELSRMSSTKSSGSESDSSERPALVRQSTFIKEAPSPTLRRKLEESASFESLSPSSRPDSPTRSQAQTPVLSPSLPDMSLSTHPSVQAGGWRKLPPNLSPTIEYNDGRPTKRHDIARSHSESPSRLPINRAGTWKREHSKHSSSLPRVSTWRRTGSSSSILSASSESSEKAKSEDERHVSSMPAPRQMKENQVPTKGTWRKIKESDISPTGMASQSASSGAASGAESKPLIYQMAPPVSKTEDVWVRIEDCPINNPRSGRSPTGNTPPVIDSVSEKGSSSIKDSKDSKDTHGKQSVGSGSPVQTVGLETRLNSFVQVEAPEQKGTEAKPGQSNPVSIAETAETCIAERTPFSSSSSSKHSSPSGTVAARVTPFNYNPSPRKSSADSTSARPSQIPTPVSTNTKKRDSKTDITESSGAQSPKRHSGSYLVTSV

B1: homodimeric SNAP-KIF3A labeled with Alexa647 or TMR (natural protein, mouse, UniProt P28741 1-701, looked up)
chain: MPINKSEKPESCDNVKVVVRCRPLNEREKSMCYRQAVSVDEMRGTITVHKTDSSNEPPKTFTFDTVFGPESKQLDVYNLTARPIIDSVLEGYNGTIFAYGQTGTGKTFTMEGVRAVPGLRGVIPNSFAHIFGHIAKAEGDTRFLVRVSYLEIYNEEVRDLLGKDQTQRLEVKERPDVGVYIKDLSAYVVNNADDMDRIMTLGHKNRSVGATNMNEHSSRSHAIFTITIECSEKGVDGNMHVRMGKLHLVDLAGSERQAKTGATGQRLKEATKINLSLSTLGNVISALVDGKSTHVPYRNSKLTRLLQDSLGGNSKTMMCANIGPADYNYDETISTLRYANRAKNIKNKARINEDPKDALLRQFQKEIEELKKKLEEGEEVSGSDISGSEEDDEEGELGEDGEKKKKRRDQAGKKKVSPDKMVEMQAKIDEERKALETKLDMEEEERNKARAELERREKDLLKAQQEHQSLLEKLSALEKKVIVGGVDLLAKAEEQEKLLEESNMELEERRRRAEQLRKELEEKEQERLDIEEKYTSLQEEAQGKTKKLKKVWTMLMAAKSEMADLQQEHQREIEGLLENIRQLSRELRLQMLIIDNFIPQDYQEMIENYVHWNEDIGEWQLKCVAYTGNNMRKQTPVPDKKERDPFEVDLSHVYLAYTEESLRQSLMKLERPRTSKGKARPKMGRRKRSAKPETVIDSLLQ
modifications: Alexa647 or TMR dye on the SNAP tag
The stoichiometry N is a count of units in the complex or per binding partner. Consider B1, for which the “stoichiometry N” value in series [1] worked out at 2.

B2: KIF3A (homodimer, separately purified) (natural protein, mouse, UniProt P28741 1-701, looked up)
chain: MPINKSEKPESCDNVKVVVRCRPLNEREKSMCYRQAVSVDEMRGTITVHKTDSSNEPPKTFTFDTVFGPESKQLDVYNLTARPIIDSVLEGYNGTIFAYGQTGTGKTFTMEGVRAVPGLRGVIPNSFAHIFGHIAKAEGDTRFLVRVSYLEIYNEEVRDLLGKDQTQRLEVKERPDVGVYIKDLSAYVVNNADDMDRIMTLGHKNRSVGATNMNEHSSRSHAIFTITIECSEKGVDGNMHVRMGKLHLVDLAGSERQAKTGATGQRLKEATKINLSLSTLGNVISALVDGKSTHVPYRNSKLTRLLQDSLGGNSKTMMCANIGPADYNYDETISTLRYANRAKNIKNKARINEDPKDALLRQFQKEIEELKKKLEEGEEVSGSDISGSEEDDEEGELGEDGEKKKKRRDQAGKKKVSPDKMVEMQAKIDEERKALETKLDMEEEERNKARAELERREKDLLKAQQEHQSLLEKLSALEKKVIVGGVDLLAKAEEQEKLLEESNMELEERRRRAEQLRKELEEKEQERLDIEEKYTSLQEEAQGKTKKLKKVWTMLMAAKSEMADLQQEHQREIEGLLENIRQLSRELRLQMLIIDNFIPQDYQEMIENYVHWNEDIGEWQLKCVAYTGNNMRKQTPVPDKKERDPFEVDLSHVYLAYTEESLRQSLMKLERPRTSKGKARPKMGRRKRSAKPETVIDSLLQ
Turning to B2, the binding result in series [2] was “binds”. In “SEC-MALS”, the “stoichiometry N” value stood at 2.

Turning to B3, the binding result in series [3] is given as “binds”.
